From paper PMC3526308 come the findings set out here.

The target of the data set is T1, LtmA (Ms6479) (Mycobacterium smegmatis mc2155, UniProt A0R6A5 1-189).
T1 sequence: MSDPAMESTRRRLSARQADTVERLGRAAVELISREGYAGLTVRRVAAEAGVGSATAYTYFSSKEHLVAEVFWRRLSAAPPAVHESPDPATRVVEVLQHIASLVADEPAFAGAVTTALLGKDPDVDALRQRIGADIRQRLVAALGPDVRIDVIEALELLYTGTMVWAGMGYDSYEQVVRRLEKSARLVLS
The experiment in a line: EMSA.

B1: Ms6484p4 (dsDNA)
DNA 1: CTCCGAAACCTCTGGACATGTGTCCAGACTATAGTTTG
DNA 2: CAAACTATAGTCTGGACACATGTCCAGAGGTTTCGGAG
On to B1, for which the binding result is on record as “binds”.

B2: Ms6484p5 (dsDNA)
DNA 1: CAAACTATAGCAGCTCTCCACCTGACACGGTTTCGGAG
DNA 2: CTCCGAAACCGTGTCAGGTGGAGAGCTGCTATAGTTTG
Consider B2, for which the binding result is recorded as “no binding”.
